Laboratory results reported in publication PMC4592220, “Geminivirus Activates [sequence] LEAVES 2 to Accelerate Cytoplasmic DCP2-Mediated mRNA Turnover and Weakens RNA Silencing in Arabidopsis” (PLoS Pathogens, 2015).

T1: DCP2, recombinant (Arabidopsis thaliana, UniProt Q8GW31 1-373)
T1 construct: mRNA decapping enzyme DCP2, Arabidopsis; full-length cDNA
T1 sequence: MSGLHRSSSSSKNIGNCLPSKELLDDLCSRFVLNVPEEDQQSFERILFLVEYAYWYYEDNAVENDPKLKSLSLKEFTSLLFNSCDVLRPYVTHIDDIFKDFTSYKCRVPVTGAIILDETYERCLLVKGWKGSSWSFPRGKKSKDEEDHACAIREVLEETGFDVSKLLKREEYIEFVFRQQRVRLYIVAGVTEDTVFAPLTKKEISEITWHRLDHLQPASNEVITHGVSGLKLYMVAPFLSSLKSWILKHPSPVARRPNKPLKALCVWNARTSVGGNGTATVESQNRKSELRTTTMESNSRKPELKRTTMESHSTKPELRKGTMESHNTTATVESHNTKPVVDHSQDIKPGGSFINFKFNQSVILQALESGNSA

B1: GST-AS2 (… LEAVES 2) (natural protein)
chain: MASSSTNSPCAACKFLRRKCQPECVFAPYFPPDQPQKFANVHKVFGASNVTKLLNELHPSQREDAVNSLAYEADMRLRDPVYGCVGVISLLQHQLRQLQIDLSCAKSELSKYQSLGILAATHQSLGINLLAGAADGTATAVRDHYHHHQFFPREQMFGGLDVPAGNNYDGGILAIGQITQFQQPRAAAGDDGRRTVDPS
notes: full-length cDNA

Columns and labels:
[1] = biological target: B1; experiment: pull-down; 2 ug of GST/MBP/His/His-SUMO fusion proteins; binding buffer 50 mM Tris-HCl pH 7.5, 100 mM NaCl, 0.25% Triton X-100, 35 mM beta-mercaptoethanol, 2 h at 4 C, then glutathione sepharose 4B overnight; 6 washes; Western blot with anti-His, anti-GST or anti-MBP; details: both partners purified
[2] = biological target: T1, DCP2, recombinant; experiment: as above; details: both partners purified

Row | Binder | binding result [1] | binding result [2]
1 | His-AS2 (… LEAVES 2) (natural protein, full-length cDNA; The methods say the yeast SUMO tag was used to improve AS2 solubility; also called WT AS2) MASSSTNSPCAACKFLRRKCQPECVFAPYFPPDQPQKFANVHKVFGASNVTKLLNELHPSQREDAVNSLAYEADMRLRDPVYGCVGVISLLQHQLRQLQIDLSCAKSELSKYQSLGILAATHQSLGINLLAGAADGTATAVRDHYHHHQFFPREQMFGGLDVPAGNNYDGGILAIGQITQFQQPRAAAGDDGRRTVDPS | binds | 
2 | B1 |  | binds
